The supplement of paper PMC7125110
± gives the standard error. For part of these data: Variants at the floor of the assay were thinned out.

B1: glmS ribozyme (parent)
chain: AUAAAAGCGCCAGAACUACAGAAAUGUAGUUGACGAGGAGGAGGUUUAUCGAAUUUUCGGCGGAUGCCUCCAAA

Variants of: B1
Experiment: KM; higher = weaker cofactor use; RNA array
Settings: with glucosamine-6-phosphate
Outline: (§1)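 In situ transcription by E. coli RNA polymerase produced barcoded ribozyme variants on sequenced MiSeq chips, and a hybridised Cy3 probe tracked them at 37 °C. Glucosamine-6-phosphate was flowed in at 40 μM to 10 mM in HEPES/KCl/Mg(OAc)2 buffer. kcat and KM were taken from weighted Michaelis–Menten fits of kobs values from exponential decay fits.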

AUAAAAGCGCCUGAACUACAGAAAUGUAGUUGACGAGGAGGAGGUUUAUCGAAUUUUCGGCGGAUACCUCCAAA [A12U G66A] and AUAAAAGCGCCAGAGCUACAGAAAUGUAGUUGACGAGGAGGAGGUUUAUCGAAAUUUCGGCGGAUGCCUCCAAA [A15G U54A] are within error of each other in KM: 278 ± 130 µM for the first, 508 ± 200 µM for the second.

Going from AUAAAAGCGCCAGAACUACAGAAAUGUAGUUGACGAGGAGGAGGUUUAUCGAAAUUUCGGAGGAUGCCUCCAAA [U54A C61A] to AUAAAAGCGCCAGAACUACAGAAAUGUAGUUGACGAGGAGGAGGUUUAUCUAAUUUUCGGCGGAGGCCUCCAAA [G51U U65G], the KM falls from 864 ± 400 µM to 63.4 ± 18 µM (14-fold).

First: AUAAAAGCGCCAGAACUACAGAAAUGUAGUUGACGAGGAGGAGGUUAAUCGAAUUUUCGGCGGGUGCCUCCAAA [U47A A64G]
Second: AUAAAAGCGCCAGAACUACAGAAAUGUAGUUGACGAGGAGGUGGUUUAUCGAAUUUUCAGCGGAUGCCUCCAAA [A42U G59A]
The KM of the first is 5.4-fold higher: 787 ± 380 µM for the first, 145 ± 23 µM for the second.

First: AUAAAAGCGCCAGAACUACAGAAAUGUAGUUGACGUGGAGGAGGUUUAUCGAAUUUUCGGCGGAUGCCUCCAAA [A36U]
Second: AUAAAAGCGCCAGAACUACAGAAAUGUAGUUGACGAGGAGGAGGUUUAUCGAAUUCUCGGCAGAUGCCUCCAAA [U56C G62A]
The KM of the first is 4.3-fold higher: 584 ± 170 µM for the first, 135 ± 63 µM for the second.

First: AUAAAAGCGCCAUAACUACAGAAAUGUAGUUGACGAGGAGGAGGUUUCUCGAAUUUUCGGCGGAUGCCUCCAAA [G13U A48C]
Second: AUAAAAGCGCCAGAACUACAGAAAUGUAGUUGACGAGUAGGAGGUUUAUCGAAUUUUCGGCGGAUGCCUCAAAA [G38U C71A]
The KM of the first is 85-fold higher: 3030 ± 610 µM for the first, 35.8 ± 15 µM for the second.

Variants of: B1
Experiment: self-cleavage kobs at 40 uM GlcN6P; higher = faster cleavage; RNA array
Settings: with glucosamine-6-phosphate
Outline: as §1

Going from AUAAAAGCGCCUGAACUACAGAAAUGUAGUUGACGAGGAGGAGGUUUAUCGAAUUUUCGGCGGAUACCUCCAAA [A12U G66A] to AUAAAAGCGCCAGAGCUACAGAAAUGUAGUUGACGAGGAGGAGGUUUAUCGAAAUUUCGGCGGAUGCCUCCAAA [A15G U54A], the “self-cleavage kobs at 40 uM GlcN6P” value falls from 0.0012 ± 0.00016 s⁻¹ to 0.000663 ± 0.00011 s⁻¹ (1.8-fold).

First: ACAAAACCGCCAGAACUACAGAAAUGUAGUUGACGAGGAGGGGGUUUAUCGAAUUAUCGGAGGAUGCCUCCAAA [U2C G7C A42G U56A C61A]
Second: CUAAAAGCGCUAGAACUACAGAAAUGUAGUUGACGAGGAGGAGGUUUAUCGAAUUUUCGGCGGGUGCCUCCAAA [A1C C11U A64G]
The “self-cleavage kobs at 40 uM GlcN6P” value of the first is lower: under 1e-05 s⁻¹ for the first, 8.55e-05 ± 2.5e-05 s⁻¹ for the second.

GUAAAAGCGCCAGAACUACAGAAAUGUAGUUGAUGAGGAGGAGGUUUAUCGUAUUUUCGGCGGAUGCCUCCAAA [A1G C34U A52U] and AUAAACGCGCCGGAACUACAGAAAUGUAGUUGACGAGGAGGAGGUUUAUCGAAUUCUCGGCGGAUGCCUCCAAA [A6C A12G U56C] cannot be ordered by “self-cleavage kobs at 40 uM GlcN6P” value: under 1e-05 s⁻¹ for the first, under 1e-05 s⁻¹ for the second.

AUAAACGCGCCUGAACUACAGAAAUGUAGUUGACGAGGAGGUGGUUUAUCGAAUUUUCGGCGGAUGCCUCCAAA [A6C A12U A42U] and AUAAACGCGCCAGCACUACAGAAAUGUAGUUGACGAGGGGGAGGUUUAUAGAAUUUUCGGCGGAUGCCUCCAAA [A6C A14C A39G C50A] cannot be ordered by “self-cleavage kobs at 40 uM GlcN6P” value: under 1e-05 s⁻¹ for the first, under 1e-05 s⁻¹ for the second.

Compared with AUAAAAGCGCCAGAACUACAGAAAUGUAGUUGACGAGGAGGAGGUUAAUCGAAUUUUCGGCGGGUGCCUCCAAA [U47A A64G], AUAAACGCGCCAGAGCUACAGAAAUGUAGUUGACGAGGAGGAGGGUUAUCGAAUUUUCGGCGGAUGCCUCCAAA [A6C A15G U45G] is lower in “self-cleavage kobs at 40 uM GlcN6P” value: 0.000468 ± 8.5e-05 s⁻¹ for the first, under 1e-05 s⁻¹ for the second.

AUAAACGCGCCAGAUCUACAGAAAUGUAGUUGUCGAGGAGGAGGUUUAUCGAAUUUUCGGCGGAUGCCGCCAAA [A6C A15U A33U U69G] was tested, and the “self-cleavage kobs at 40 uM GlcN6P” value was under 1e-05 s⁻¹.

Variants of: B1
Experiment: self-cleavage kobs at 160 uM GlcN6P; higher = faster cleavage; RNA array
Settings: with glucosamine-6-phosphate
Outline: as §1

AUAAAAGCGCCUGAACUACAGAAAUGUAGUUGACGAGGAGGAGGUUUAUCGAAUUUUCGGCGGAUACCUCCAAA [A12U G66A] and AUAAAAGCGCCAGAGCUACAGAAAUGUAGUUGACGAGGAGGAGGUUUAUCGAAAUUUCGGCGGAUGCCUCCAAA [A15G U54A] are within error of each other in “self-cleavage kobs at 160 uM GlcN6P” value: 0.00266 ± 0.0007 s⁻¹ for the first, 0.00251 ± 0.00049 s⁻¹ for the second.

Going from AUAAAAGCGCCAGAACUACAGAAAUGUAGUUGACGAGGAGGAGGUUAAUCGAAUUUUCGGCGGGUGCCUCCAAA [U47A A64G] to AUAAACGCGCCAGAGCUACAGAAAUGUAGUUGACGAGGAGGAGGGUUAUCGAAUUUUCGGCGGAUGCCUCCAAA [A6C A15G U45G], the “self-cleavage kobs at 160 uM GlcN6P” value falls from 0.00141 ± 0.00037 s⁻¹ to under 1e-05 s⁻¹.

Variants of: B1
Experiment: self-cleavage kobs at 640 uM GlcN6P; higher = faster cleavage; RNA array
Settings: with glucosamine-6-phosphate
Outline: as §1

AUAAAAGCGCCUGAACUACAGAAAUGUAGUUGACGAGGAGGAGGUUUAUCGAAUUUUCGGCGGAUACCUCCAAA [A12U G66A] and AUAAAAGCGCCAGAGCUACAGAAAUGUAGUUGACGAGGAGGAGGUUUAUCGAAAUUUCGGCGGAUGCCUCCAAA [A15G U54A] are within error of each other in “self-cleavage kobs at 640 uM GlcN6P” value: 0.00776 ± 0.002 s⁻¹ for the first, 0.006 ± 0.0015 s⁻¹ for the second.

First: AUAAACGCGCCUGAACUACAGAAAUGUAGUUGACGAGGAGGUGGUUUAUCGAAUUUUCGGCGGAUGCCUCCAAA [A6C A12U A42U]
Second: AUAAAAGCGCCAGAACUACAGAAAUGUAGUUGACGAGGAGGAGGUUAAUCGAAUUUUCGGCGGGUGCCUCCAAA [U47A A64G]
The “self-cleavage kobs at 640 uM GlcN6P” value of the first is lower: under 1e-05 s⁻¹ for the first, 0.00552 ± 0.0012 s⁻¹ for the second.

Variants of: B1
Experiment: self-cleavage kobs at 2500 uM GlcN6P; higher = faster cleavage; RNA array
Settings: with glucosamine-6-phosphate
Outline: as §1

AUAAAAGCGCCUGAACUACAGAAAUGUAGUUGACGAGGAGGAGGUUUAUCGAAUUUUCGGCGGAUACCUCCAAA [A12U G66A] and AUAAAAGCGCCAGAGCUACAGAAAUGUAGUUGACGAGGAGGAGGUUUAUCGAAAUUUCGGCGGAUGCCUCCAAA [A15G U54A] are within error of each other in “self-cleavage kobs at 2500 uM GlcN6P” value: 0.00745 ± 0.0017 s⁻¹ for the first, 0.00683 ± 0.0018 s⁻¹ for the second.

For AUAAAAGCGCCAGAACUACAGAAAUGUAGUUGACGAGGAGGAGGUUAAUCGAAUUUUCGGCGGGUGCCUCCAAA [U47A A64G], the “self-cleavage kobs at 2500 uM GlcN6P” value was 0.00614 ± 0.0013 s⁻¹.

Variants of: B1
Experiment: self-cleavage kobs at 10000 uM GlcN6P; higher = faster cleavage; RNA array
Settings: with glucosamine-6-phosphate
Outline: as §1

AUAAAAGCGCCUGAACUACAGAAAUGUAGUUGACGAGGAGGAGGUUUAUCGAAUUUUCGGCGGAUACCUCCAAA [A12U G66A] and AUAAAAGCGCCAGAGCUACAGAAAUGUAGUUGACGAGGAGGAGGUUUAUCGAAAUUUCGGCGGAUGCCUCCAAA [A15G U54A] are within error of each other in “self-cleavage kobs at 10000 uM GlcN6P” value: 0.0359 ± 0.012 s⁻¹ for the first, 0.0333 ± 0.014 s⁻¹ for the second.

Compared with ACAAAACCGCCAGAACUACAGAAAUGUAGUUGACGAGGAGGGGGUUUAUCGAAUUAUCGGAGGAUGCCUCCAAA [U2C G7C A42G U56A C61A], CUAAAAGCGCUAGAACUACAGAAAUGUAGUUGACGAGGAGGAGGUUUAUCGAAUUUUCGGCGGGUGCCUCCAAA [A1C C11U A64G] is higher in “self-cleavage kobs at 10000 uM GlcN6P” value: under 1e-05 s⁻¹ for the first, 0.00142 ± 0.00035 s⁻¹ for the second.

AUAAACGCGCCGGAACUACAGAAAUGUAGUUGACGAGGAGGAGGUUUAUCGAAUUCUCGGCGGAUGCCUCCAAA [A6C A12G U56C] and AUAAACGCGCCUGAACUACAGAAAUGUAGUUGACGAGGAGGUGGUUUAUCGAAUUUUCGGCGGAUGCCUCCAAA [A6C A12U A42U] cannot be ordered by “self-cleavage kobs at 10000 uM GlcN6P” value: under 1e-05 s⁻¹ for the first, under 1e-05 s⁻¹ for the second.

In the case of AUAAAAGCGCCAGAACUACAGAAAUGUAGUUGACGAGGAGGAGGUUAAUCGAAUUUUCGGCGGGUGCCUCCAAA [U47A A64G], the “self-cleavage kobs at 10000 uM GlcN6P” value is reported as 0.0238 ± 0.0074 s⁻¹.
